Each binder was assayed against Tri6 (Fusarium graminearum (PH-1; NRRL 31084?), UniProt Q9C1A9 1-218) (assay: EMSA). Settings: protein: recombinant; tags: His (pDEST17; Methods EMSA text says Tri6-HA recombinant protein); label: 32P 5' end.

Row | Binder | binding result
1 | Tri6-2 (dsDNA) DNA 1: CTCAGCAGGATGAACAAGGGGTCTGAAAGGCCTGGC DNA 2: GCCAGGCCTTTCAGACCCCTTGTTCATCCTGCTGAG | no binding
2 | Tri6-3 (dsDNA) DNA 1: GGCAGGCCTGACAGGAGTGATAAAATGTGAGAAGAG DNA 2: CTCTTCTCACATTTTATCACTCCTGTCAGGCCTGCC | binds
3 | Tri6-1 (dsDNA) DNA 1: GGGTCTGAAAGGCCTGGCAGGCCTGACAGGAGTG DNA 2: CACTCCTGTCAGGCCTGCCAGGCCTTTCAGACCC | no binding
